Results on 1 substance are retold here after PMC10932607.

The target in assay [1] is SemiSWEET. As to the kind of experiment: native MS.
The target in assay [2] is SemiSWEET. Nature of the assay: native MS. The source holds these as a separate data set.

Read-outs that look alike come from different tables or passages of the source.

For SemiSWEET (natural protein), the stoichiometry N in the assay with SemiSWEET [1] and with SemiSWEET [2] was 2 each time.
